Bridges are numbered along the chain shown (N, C = ends). Where no end group is shown, it is not given here. The star is where a group is joined. Hexanoyl(6-maleimido) = O=C1C=CC(=O)N1CCCCCC(=O)*
How the values were obtained:
wild-type FVB male mice = experiment: Growth study in FVB mice after 5 weeks treatment, daily subcutaneous bolus injection or continuous subcutaneous infusion; format: in vivo; conditions: 50 nmol/kg/d, d 35
Description: This study was performed in order to test the effect of daily subcutaneous bolus injection vs. continuous subcutaneous infusion of CNP-38 on animal growth. 21- to 22-days-old wild-type FVB male mice (n = 9/group) were given 50 nmol/kg/d CNP-38 or vehicle (30 mM acetate pH 4 containing 5 % sucrose and 1 % benzylic alcohol) either by daily subcutaneous bolus injection or by continuous subcutaneous infusion in the scapular region over 35 days. Continuous infusion was applied by Alzet osmotic pumps model 1002 for week 1-2, followed by model 1004 for week 3-5. CNP-38 concentrations in the pumps were adjusted for the mean animal weight at study day 7 (pump model 1002) or study day 25 (pump model 1004). Growth was determined at d 35 by total body length measurement and X-ray measurements of the right femur and tibia.

recombinant human NEP = recombinant human NEP (Homo sapiens, UniProt P08473); conditions: pH 7.4
recombinant human NEP, sequence (P08473 whole entry): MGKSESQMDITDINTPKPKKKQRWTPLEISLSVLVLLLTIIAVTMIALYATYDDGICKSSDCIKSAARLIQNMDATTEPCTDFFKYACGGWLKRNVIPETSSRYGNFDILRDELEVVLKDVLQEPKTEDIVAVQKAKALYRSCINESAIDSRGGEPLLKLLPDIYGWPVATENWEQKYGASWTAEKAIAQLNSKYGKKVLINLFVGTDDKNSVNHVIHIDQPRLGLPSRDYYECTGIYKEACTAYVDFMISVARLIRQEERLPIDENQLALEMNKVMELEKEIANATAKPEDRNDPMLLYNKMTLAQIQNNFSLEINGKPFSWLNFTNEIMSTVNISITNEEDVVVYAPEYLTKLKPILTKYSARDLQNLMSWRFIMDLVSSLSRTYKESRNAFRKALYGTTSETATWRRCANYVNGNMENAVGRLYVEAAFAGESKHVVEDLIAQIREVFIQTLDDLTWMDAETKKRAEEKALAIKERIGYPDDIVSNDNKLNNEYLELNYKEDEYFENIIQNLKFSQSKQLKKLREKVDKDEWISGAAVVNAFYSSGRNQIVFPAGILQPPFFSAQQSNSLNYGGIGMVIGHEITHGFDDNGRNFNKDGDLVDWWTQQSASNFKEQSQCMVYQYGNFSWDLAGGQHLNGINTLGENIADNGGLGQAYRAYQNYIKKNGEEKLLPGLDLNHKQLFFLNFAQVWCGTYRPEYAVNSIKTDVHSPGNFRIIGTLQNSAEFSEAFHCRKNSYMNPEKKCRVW
From the text: Samples were taken at different time intervals. […] The resulting reaction products were assigned using HPLC-MS.

[1] = target: T1, natriuretic-peptide receptor B (NPR-B) expressed endogenously on NIH-3T3 cells (Murine Embryo Fibroblast cell … (murine, UniProt Q6VVW5 17-1047)); experiment: cell-based or functional assay
T1 sequence (looked up): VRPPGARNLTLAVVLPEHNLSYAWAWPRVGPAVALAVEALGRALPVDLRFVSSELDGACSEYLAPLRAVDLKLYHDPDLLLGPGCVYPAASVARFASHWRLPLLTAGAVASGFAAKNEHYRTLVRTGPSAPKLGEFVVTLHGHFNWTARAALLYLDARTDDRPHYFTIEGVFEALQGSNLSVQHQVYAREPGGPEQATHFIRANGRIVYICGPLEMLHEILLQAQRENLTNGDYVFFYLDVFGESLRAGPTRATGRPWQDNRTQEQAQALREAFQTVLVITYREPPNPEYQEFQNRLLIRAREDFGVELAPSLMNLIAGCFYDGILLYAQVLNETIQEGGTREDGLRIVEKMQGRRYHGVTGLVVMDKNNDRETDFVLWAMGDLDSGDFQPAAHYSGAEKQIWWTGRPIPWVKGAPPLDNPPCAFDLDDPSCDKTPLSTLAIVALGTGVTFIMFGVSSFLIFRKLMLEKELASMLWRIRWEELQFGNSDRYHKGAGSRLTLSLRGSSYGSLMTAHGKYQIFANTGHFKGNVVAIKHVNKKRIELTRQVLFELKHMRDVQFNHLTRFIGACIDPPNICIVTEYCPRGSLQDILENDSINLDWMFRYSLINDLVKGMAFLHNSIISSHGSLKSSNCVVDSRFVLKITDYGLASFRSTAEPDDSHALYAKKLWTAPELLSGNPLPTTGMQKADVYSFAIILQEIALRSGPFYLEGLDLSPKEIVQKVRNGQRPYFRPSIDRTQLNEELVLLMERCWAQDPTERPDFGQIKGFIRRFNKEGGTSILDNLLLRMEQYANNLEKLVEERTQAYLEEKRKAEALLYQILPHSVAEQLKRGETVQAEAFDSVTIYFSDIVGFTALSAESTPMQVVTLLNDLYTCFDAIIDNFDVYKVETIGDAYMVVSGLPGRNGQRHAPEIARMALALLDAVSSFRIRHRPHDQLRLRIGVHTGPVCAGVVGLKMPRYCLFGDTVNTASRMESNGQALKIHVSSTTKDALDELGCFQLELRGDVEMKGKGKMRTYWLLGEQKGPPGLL

CNP-38: CNP-38 SEQ ID No:24, LQEHPNARKYKGANKKGLSKGCFGLKLDRIGSMSGLGC, obtained from CASLO ApS (disulfide 22-38)
total body lenght compared to vehicle treated animals (wild-type FVB male mice; continuous subcutaneous infusion): 121.7%
total body lenght compared to vehicle treated animals (wild-type FVB male mice; daily subcutaneous bolus injection): 110.2%
half life norm. (recombinant human NEP): 12.10 h

B1: permanent Lys26 CNP-38 PEG 5 kDa conjugate 19e (peptide)
peptide: LQEHPNARKYKGANKKGLSKGCFGLKLDRIGSMSGLGC
modifications: 5 kDa PEG stably attached at the side chain of Lys26 through a maleimido hexanoyl group; disulfide bridge between Cys22 and Cys38
Residual Activity [%] (cGMP TR-FRET in NIH-3T3 cells, by EC50 against non-PEGylated CNP-38) [1]: < 1%

LQEHPNARKYKGANKKGLSKGCFGLKLDRIGSMSGLGC (disulfide 22-38; not fully specified (residue 26)) [permanent Lys26 CNP-38 PEG4x10 kDa conjugate 12g]
Residual Activity [%] (cGMP TR-FRET in NIH-3T3 cells, by EC50 against non-PEGylated CNP-38) [1]: < 1%

{PEG 5 kDa-Hexanoyl(6-maleimido)}-LQEHPNARKYKGANKKGLSKGCFGLKLDRIGSMSGLGC (disulfide 22-38) [permanent N-terminal CNP-38 PEG 5kDa conjugate 15e]
Residual Activity [%] (cGMP TR-FRET in NIH-3T3 cells, by EC50 against non-PEGylated CNP-38) [1]: 14%
